According to article PMC7118729:

Biological target: Nsp15 endoribonuclease WT (SARS coronavirus, UniProt P0C6X7 6430-6775)

Row | Binder | IC50 [nM] | Ki [nM]
1 | UUUUUUUUUUUUUUUU (ssRNA) [rU16 (U16)] | 15 | 2.3
2 | AAAAAAAAAAAAAAAA (ssRNA) [rA16] | 53 | 7.6
